{"source": "patent US20230346885A1", "about": "(published 2023)", "assay_in_all_cases": "binding, other", "key": {"HOXB13 peptide on HLA": {"target": "T1, HOXB13 peptide on HLA (human)", "T1 peptide": "YLDVSVVQT"}, "HTR3A peptide on HLA [1]": {"target": "T2, HTR3A peptide on HLA (human)", "T2 peptide": "AILNVDEKNQV"}, "HTR3A peptide on HLA [2]": {"target": "T3, HTR3A peptide on HLA (human)", "T3 peptide": "SLAETIFIV"}, "KLK3 peptide on HLA": {"target": "T4, KLK3 peptide on HLA (human)", "T4 peptide": "KVMDLPTQEPAL"}, "KLK4 peptide on HLA [3]": {"target": "T5, KLK4 peptide on HLA (human)", "T5 peptide": "KLYDPLYHPSM"}, "KLK4 peptide on HLA [4]": {"target": "T6, KLK4 peptide on HLA (human)", "T6 peptide": "FQNSYTIGL"}}}
{"binder": "TCR of SEQ ID NOs 375 and 376 (TCR, V domains shown) Valpha: KQEVTQIPAALSVPEGENLVLNCSFTDSAIYNLQWFRQDPGKGLTSLLLIQSSQREQTSGRLNASLDKSSGRSTLYIAASQPGDSATYLCAVRHDYKLSFGAGTTVTVRA Vbeta: NAGVTQTPKFQVLKTGQSMTLQCAQDMNHEYMSWYRQDPGMGLRLIHYSVGAGITDQGEVPNGYNVSRSTTEDFPLRLLSAAPSQTSVYFCASSRIGQRASFFGSGTRLTVV", "values": [{"measurement": "binding result", "setting": "HOXB13 peptide on HLA", "result": "recognises"}]}
{"binder": "TCR of SEQ ID NOs 377 and 378 (TCR, V domains shown) Valpha: KQEVTQIPVALSVPEGENLVLNCSFTDSAIYNLQWFRQDPGKGLTSLLLIQSSQREQTSGRLNASLDKSSGRSTLYIAASQPGDSATYLCAVTDSWGKLQFGAGTQVVVTP Vbeta: NAGVTQTPKFQVLKTGQSMTLQCAQDMNHNSMYWYRQDPGMGLRLIYYSASEGTTDKGEVPNGYNVSRLNKREFSLRLESAAPSQTSLYFCASSEGPADTYGYTFGSGTRLTVV", "values": [{"measurement": "binding result", "setting": "HTR3A peptide on HLA [1]", "result": "recognises"}]}
{"binder": "TCR of SEQ ID NOs 379 and 380 (TCR, V domains shown) Valpha: KQEVTQIPAALSVPEGENLVLNCSFTDSAIYNLQWFRQDPGKGLTSLLLIQSSQREQTSGRLNASLDKSSGRSTLYIAASQPGDSATYLCAVSPFDLYGQNFVFGPGTRLSVLP Vbeta: NAGVTQTPKFQVLKTGQSMTLQCAQDMNHNSMYWYRQDPGMGLRLIYYSASEGTTDKGEVPNGYNVSRLNKREFSLRLESAAPSQTSVYFCASRGTLFDPQHFGDGTRLSIL", "values": [{"measurement": "binding result", "setting": "HTR3A peptide on HLA [1]", "result": "recognises"}]}
{"binder": "TCR of SEQ ID NOs 381 and 382 (TCR, V domains shown) Valpha: KQEVTQIPAALSVPEGENLVLNCSFTDSAIYNLQWFRQDPGKGLTSLLLIQSSQREQTSGRLNASLDKSSGRSTLYIAASQPGDSATYLCAVRPADSWGKLQFGAGTQVVVTP Vbeta: NAGVTQTPKFRILKIGQSMTLQCTQDMNHNYMYWYRQDPGMGLKLIYYSVGAGITDKGEVPNGYNVSRSTTEDFPLRLELAAPSQTSVYFCASSYSLGELFFGEGSRLTVL", "values": [{"measurement": "binding result", "setting": "HTR3A peptide on HLA [1]", "result": "recognises"}]}
{"binder": "TCR of SEQ ID NOs 383 and 384 (TCR, V domains shown) Valpha: KQEVTQIPAALSVPEGENLVLNCSFTDSAIYNLQWFRQDPGKGLTSLLLIQSSQREQTSGRLNASLDKSSGRSTLYIAASQPGDSATYLCAVLTTDSWGKLQFGAGTQVVVTP Vbeta: NAGVTQTPKFRILKIGQSMTLQCTQDMNHNSMYWYRQDPGMGLRLIYYSASEGTTDKGEVPNGYNVSRLNKREFSLRLESAAPSQTSVYFCASSELIGTVDYSNQPQHFGDGTRLSIL", "values": [{"measurement": "binding result", "setting": "HTR3A peptide on HLA [2]", "result": "recognises"}]}
{"binder": "TCR of SEQ ID NOs 385 and 386 (TCR, V domains shown) Valpha: KQEVTQIPAALSVPEGENLVLNCSFTDSAIYNLQWFRQDPGKGLTSLLLIQSSQREQTSGRLNASLDKSSGRSTLYIAASQPGDSATYLCAVLTDSWGKLQFGAGTQVVVTP Vbeta: NAGVTQTPKFRVLKTGQSMTLLCAQDMNHEYMYWYRQDPGMGLRLIHYSVGEGTTAKGEVPDGYNVSRLKKQNFLLGLESAAPSQTSVYFCASSYWGGNTEAFFGQGTRLTVV", "values": [{"measurement": "binding result", "setting": "HTR3A peptide on HLA [2]", "result": "recognises"}]}
{"binder": "TCR of SEQ ID NOs 387 and 388 (TCR, V domains shown) Valpha: KQEVTQIPAALSVPEGENLVLNCSFTDSAIYNLQWFRQDPGKGLTSLLLIQSSQREQTSGRLNASLDKSSGRSTLYIAASQPGDSATYLCAVSGDSWGKLQFGAGTQVVVTP Vbeta: NAGVTQTPKFQVLKTGQSMTLQCAQDMNHNSMYWYRQDPGMGLRLIYYSASEGTTDKGEVPNGYNVSRLNKREFSLRLESAAPSQTSVYFCASSYWGPNTEAFFGQGTRLTVV", "values": [{"measurement": "binding result", "setting": "HTR3A peptide on HLA [2]", "result": "recognises"}]}
{"binder": "TCR of SEQ ID NOs 389 and 390 (TCR, V domains shown) Valpha: QKEVEQNSGPLSVPEGAIASLNCTYSDRGSQSFFWYRQYSGKSPELIMSIYSNGDKEDGRFTAQLNKASQYVSLLIRDSQPSDSATYLCAVWGKSGGYNKLIFGAGTRLAVHP Vbeta: NAGVTQTPKFGILKTGQSMTLQCAQDMNHEYMSWYRQDPGMGLRLIHYSVGAGITDKGEVPNGYNVSRSTTEDFPLRLELAAPSQTSVYFCASSYSSPLRQDNSPLHFGNGTRLTVT", "values": [{"measurement": "binding result", "setting": "KLK3 peptide on HLA", "result": "recognises"}]}
{"binder": "TCR of SEQ ID NOs 391 and 392 (TCR, V domains shown) Valpha: QKEVEQNSGPLSVPEGAIASLNCTYSDRGSQSFFWYRQYSGKSPELIMSIYSNGDKEDGRFTAQLNKASQYVSLLIRDSQPSDSATYLCAVNSPGNARLMFGDGTQLVVKP Vbeta: NAGVTQTPKFQVLKTGQSMTLQCAQDMNHEYMSWYRQDPGMGLRLIHYSVGAGITDQGEVPNGYNVSRSTTEDFPLRLLSAAPSQTSVYFCASSYWRGGLEQYFGPGTRLTVT", "values": [{"measurement": "binding result", "setting": "KLK3 peptide on HLA", "result": "recognises"}]}
{"binder": "TCR of SEQ ID NOs 393 and 394 (TCR, V domains shown) Valpha: AQSVTQLDSHVSVSEGTPVLLRCNYSSSVPPYLFWYVQYPNQGLQLLLKYTTGATLVKGINGFEAEFKKSETSFHLTKPSAHMSDAAEYFCAVSEDGNKLVFGAGTILRVKS Vbeta: AAGVIQSPRHLIKEKRETATLKCYPIPRHDTVYWYQQGPGQDPQFLISFYEKMQSDKGSIPDRFSAQQFSDYHSELNMSSLELGDSALYFCASRLTGVSGEGDYGYTFGSGTRLTVV", "values": [{"measurement": "binding result", "setting": "KLK3 peptide on HLA", "result": "recognises"}]}
{"binder": "TCR of SEQ ID NOs 395 and 396 (TCR, V domains shown) Valpha: KQEVTQIPAALSVPEGENLVLNCSFTDSAIYNLQWFRQDPGKGLTSLLLIQSSQREQTSGRLNASLDKSSGRSTLYIAASQPGDSATYLCAVLDSWGKLQFGAGTQVVVTP Vbeta: NAGVTQTPKFRVLKTGQSMTLLCAQDMNHEYMYWYRQDPGMGLRLIHYSVGEGTTAKGEVPDGYNVSRLKKQNFLLGLESAAPSQTSVYFCASSGLLSPDTQYFGPGTRLKVL", "values": [{"measurement": "binding result", "setting": "KLK4 peptide on HLA [3]", "result": "recognises"}]}
{"binder": "TCR of SEQ ID NOs 397 and 398 (TCR, V domains shown) Valpha: KQEVTQIPAALSVPEGENLVLNCSFTDSAIYNLQWFRQDPGKGLTSLLLIQSSQREQTSGRLNASLDKSSGRSTLYIAASQPGDSATYLCAAGGYQKVTFGTGTKLQVIP Vbeta: NAGVTQTPKFRILKIGQSMTLQCTQDMNHNYMYWYRQDPGMGLKLIYYSVGAGITDKGEVPNGYNVSRSTTEDFPLRLLSAAPSQTSVYFCASRRPTGELFFGEGSRLTVL", "values": [{"measurement": "binding result", "setting": "KLK4 peptide on HLA [3]", "result": "recognises"}]}
{"binder": "TCR of SEQ ID NOs 399 and 400 (TCR, V domains shown) Valpha: KQEVTQIPAALSVPEGENLVLNCSFTDSAIYNLQWFRQDPGKGLTSLLLIRSSQREQTSGRLNASLDKSSGRSTLYIAASQPGDSATYLCAVMSSQGGSEKLVFGKGTKLTVNP Vbeta: NAGVTQTPKFRVLKTGQSMTLLCAQDMNHEYMYWYRQDPGMGLRLIHYSVGEGTTAKGEVPDGYNVSRLKKQNFLLGLESAAPSQTSVYFCASKGLVADTIYFGEGSWLTVV", "values": [{"measurement": "binding result", "setting": "KLK4 peptide on HLA [3]", "result": "recognises"}]}
{"binder": "TCR of SEQ ID NOs 407 and 408 (TCR, V domains shown) Valpha: KQEVTQIPAALSVPEGENLVLNCSFTDSAIYNLQWFRQDPGKGLTSLLLIQSSQREQTSGRLNASLDKSSGRSTLYIAASQPGDSATYLCAVRSYNTDKLIFGTGTRLQVFP Vbeta: NAGVTQTPKFRILKIGQSMTLQCTQDMNHNYMYWYRQDPGMGLKLIYYSVGAGITDKGEVPNGYNVSRSTTEDFPLRLELAAPSQTSVYFCASSYSSWTEAFFGQGTRLTVV", "values": [{"measurement": "binding result", "setting": "KLK4 peptide on HLA [4]", "result": "recognises"}]}
{"binder": "TCR of SEQ ID NOs 409 and 410 (TCR, V domains shown) Valpha: KQEVTQIPAALSVPEGENLVLNCSFTDSAIYNLQWFRQDPGKGLTSLLLIQSSQREQTSGRLNASLDKSSGRSTLYIAASQPGDSATYLCAVTAYNTDKLIFGTGTRLQVFP Vbeta: NAGVTQTPKFRILKIGQSMTLQCTQDMNHNYMYWYRQDPGMGLKLIYYSVGAGITDKGEVPNGYNVSRSTTEDFPLRLLSAAPSQTSVYFCASSYYPGTSTEAFFGQGTRLTVV", "values": [{"measurement": "binding result", "setting": "KLK4 peptide on HLA [4]", "result": "recognises"}]}
